Results published in US20040137580A1.
One block for each molecule: values may come before it.

Key:
[1] = biological target: PSGL-1/mIgG2b made in CHO-K1 clone 5L4-1 (with porcine α1,3GalT) (human; mouse) (UniProt Q14242); assay: sandwich ELISA, fusion protein captured by goat anti-mouse IgG Fc, detected with peroxidase-conjugated lectin or anti-mouse IgG Fc
[2] = biological target: PSGL-1/mIgG2b made in CHO-K1 clone C2-1-9 (with porcine α1,3GalT and C2 GnT1) (human; mouse) (UniProt Q14242); assay: as above
[3] = biological target: PSGL-1/mIgG2b made in 293T clone 14 (with porcine α1,3GalT) (human; mouse) (UniProt Q14242); assay: as above
[4] = biological target: PSGL-1/mIgG2b made in COS7 m6 clone 5I (with porcine α1,3GalT) (human; mouse) (UniProt Q14242); assay: as above
[5] = biological target: PSGL1/mIgG2b fusion protein produced in COS-7 m6 cells without cotransfection of the α1,3 GT cDNA (human; mouse) (UniProt Q14242); assay: depletion of COS supernatant on beads, remaining fusion protein by anti-mouse IgG Fc sandwich ELISA
[6] = biological target: anti-pig reactive antibodies of human blood group AB serum; assay: cell-based or functional assay

fold increase in the relative O.D. (GSA-reactivity/anti-mouse IgG reactivity) against PSGL-1/mIgG2b made in CHO without the α1,3GalT [1]: 1.8 fold
fold increase of α-Gal epitope density (relative O.D. GSA-reactivity/anti-mouse IgG reactivity) against PSGL-1/mIgG2b made in CHO-K1 cells without the α1,3GalT [2]: 13 fold
fold increase of α-Gal epitope density (relative O.D. GSA-reactivity/anti-mouse IgG reactivity) against PSGL-1/mIgG2b made with the α1,3GalT alone [2]: 7.4 fold
fold increase in the relative O.D. (GSA-reactivity/anti-mouse IgG reactivity) against PSGL-1/mIgG2b made in 293T without the α1,3GalT [3]: 3.1 fold
fold increase in the relative O.D. (GSA-reactivity/anti-mouse IgG reactivity) against PSGL-1/mIgG2b made in COS without the α1,3GalT [4]: 5.3 fold
Molecule: peroxidase-conjugated Bandereia simplicifolia isolectin B4 (L-5391, Sigma)

amount of PSGL1/mIgG2b absorbed onto 50 µl packed beads from 2 ml of supernatant [5]: 260 ng
amount of PSGL1/mIgG2b absorbed onto 50 µl packed beads from 4 ml of supernatant [5]: 290 ng
amount of PSGL1/mIgG2b absorbed onto 50 µl packed beads from 8 ml of supernatant [5]: 360 ng
Molecule: goat anti-mouse IgG agarose beads (A-6531, Sigma) (antibody)

B1: PSGL-1/mIgG2b made in COS7 m6 clone 5I (with porcine α1,3GalT) (Fc fusion, human, UniProt Q14242 18-320, looked up, not shown: a dimerising Fc or GST)
chain: LQLWDTWADEAEKALGPLLARDRRQATEYEYLDYDFLPETEPPEMLRNSTDTTPLTGPGTPESTTVEPAARRSTGLDAGGAVTELTTELANMGNLSTDSAAMEIQTTQPAATEAQTTQPVPTEAQTTPLAATEAQTTRLTATEAQTTPLAATEAQTTPPAATEAQTTQPTGLEAQTTAPAAMEAQTTAPAAMEAQTTPPAAMEAQTTQTTAMEAQTTAPEATEAQTTQPTATEAQTTPLAAMEALSTEPSATEALSMEPTTKRGLFIPFSVSSVTHKGIPMAASNLSVNYPVGAPDHISVKQC
modifications: α-Gal substituted glycans (COS7 m6 cells co-expressing porcine α1,3GalT)
PAEC cytotoxicity of blood group AB serum after adsorption [6]: 12%
amount of adsorber needed to reduce the PAEC cytotoxicity of human AB serum to 40% of maximum, against CHO cell-made PSGL-1/mIgG2b [6]: 16 times less

B2: PSGL-1/mIgG2b made in 293T clone 14 (with porcine α1,3GalT) (Fc fusion, human, UniProt Q14242 18-320, looked up, not shown: a dimerising Fc or GST)
chain: B1 chain
modifications: α-Gal substituted glycans (293T cells co-expressing porcine α1,3GalT)
PAEC cytotoxicity of blood group AB serum after adsorption [6]: 25%
amount of adsorber needed to reduce the PAEC cytotoxicity of human AB serum to 40% of maximum, against CHO cell-made PSGL-1/mIgG2b [6]: 4 times less

B3: PSGL-1/mIgG2b made in CHO-K1 clone C2-1-9 (with porcine α1,3GalT and C2 GnT1) (Fc fusion, human, UniProt Q14242 18-320, looked up, not shown: a dimerising Fc or GST)
chain: B1 chain
modifications: core 2 branched O-glycans with terminal Galα1,3Gal (Hex-HexNol-HexN-Hex-Hex; NeuAc-Hex-HexNol-HexN-Hex-Hex; NeuGc-Hex-HexNol-HexN-Hex-Hex)
amount of adsorber needed to reduce the PAEC cytotoxicity of human AB serum to 40% of maximum, against PSGL-1/mIgG2b made in CHO clone 5L4-1 [6]: 10 times less

B4: PSGL-1/mIgG2b made in CHO-K1 clone 5L4-1 (with porcine α1,3GalT) (Fc fusion, human, UniProt Q14242 18-320, looked up, not shown: a dimerising Fc or GST)
chain: B1 chain
modifications: glycans of CHO-K1 cells co-expressing porcine α1,3GalT
amount of adsorber needed to reduce the PAEC cytotoxicity of human AB serum to 40% of maximum [6]: 9.1 µg
lowest PAEC cytotoxicity of blood group AB serum reached after adsorption [6]: > 36%
